Test results from PMC6989608.

Molecular target: Recombinant PP99 gp55 tail spike protein (Pectobacterium phage PP99)
Assay: SEC; gel-filtration of purified PP99 gp55 on a calibrated Superdex 200 10 x 300 column; oligomeric state

Recombinant PP99 gp55 tail spike protein (natural protein)
stoichiometry N: 3
